Experimental data published in patent US20260061032A1.
pKd: −log10 of the molar value.

Columns and labels:
[1] = molecular target: hCD73 (human) (UniProt P21589); assay: cell-based or functional assay
[2] = molecular target: membrane-bound human CD73 (human) (UniProt P21589); assay: cell-based or functional assay
[3] = molecular target: cyCD73; assay: SPR, Biacore T200; binder captured on CM5 chip by human antibody capture kit, CD73 as analyte
[4] = molecular target: hCD73 (human) (UniProt P21589); assay: as above
[5] = molecular target: IL-2Rβγ on HEK-BLUE IL-2 reporter cells (UniProt P14784); assay: cell-based or functional assay
IL-2Rβγ on HEK-BLUE IL-2 reporter cells, sequence (P14784 27-551, chain 1 of 2): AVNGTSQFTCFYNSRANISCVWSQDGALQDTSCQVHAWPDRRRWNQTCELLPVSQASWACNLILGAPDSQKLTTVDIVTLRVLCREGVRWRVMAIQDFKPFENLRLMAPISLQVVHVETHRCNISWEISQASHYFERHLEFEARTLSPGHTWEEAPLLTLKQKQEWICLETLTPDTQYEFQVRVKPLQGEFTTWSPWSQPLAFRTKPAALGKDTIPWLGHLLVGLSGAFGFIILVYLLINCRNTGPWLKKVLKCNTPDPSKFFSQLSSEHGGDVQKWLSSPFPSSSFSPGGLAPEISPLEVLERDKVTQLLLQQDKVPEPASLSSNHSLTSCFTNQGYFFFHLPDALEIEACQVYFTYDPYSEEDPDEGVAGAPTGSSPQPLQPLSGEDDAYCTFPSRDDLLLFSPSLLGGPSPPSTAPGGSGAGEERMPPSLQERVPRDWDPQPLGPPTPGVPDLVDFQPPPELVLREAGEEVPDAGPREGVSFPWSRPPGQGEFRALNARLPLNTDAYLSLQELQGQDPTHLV
IL-2Rβγ on HEK-BLUE IL-2 reporter cells, sequence (P31785 23-369, chain 2 of 2, further chain): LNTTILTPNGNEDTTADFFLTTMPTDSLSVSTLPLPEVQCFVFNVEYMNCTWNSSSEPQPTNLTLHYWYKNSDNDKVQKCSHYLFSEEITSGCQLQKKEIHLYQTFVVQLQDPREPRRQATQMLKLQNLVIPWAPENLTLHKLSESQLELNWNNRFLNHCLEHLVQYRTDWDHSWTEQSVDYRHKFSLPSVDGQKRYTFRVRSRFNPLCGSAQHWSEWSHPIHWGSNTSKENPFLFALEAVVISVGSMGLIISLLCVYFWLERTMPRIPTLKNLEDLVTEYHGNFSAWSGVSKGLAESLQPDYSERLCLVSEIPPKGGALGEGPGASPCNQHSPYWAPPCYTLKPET

[6] = molecular target: hIL-2Rαβγ on CTLL-2 cells (human) (UniProt P01589); assay: cell-based or functional assay
hIL-2Rαβγ on CTLL-2 cells (human), sequence (P01589 22-272, chain 1 of 3): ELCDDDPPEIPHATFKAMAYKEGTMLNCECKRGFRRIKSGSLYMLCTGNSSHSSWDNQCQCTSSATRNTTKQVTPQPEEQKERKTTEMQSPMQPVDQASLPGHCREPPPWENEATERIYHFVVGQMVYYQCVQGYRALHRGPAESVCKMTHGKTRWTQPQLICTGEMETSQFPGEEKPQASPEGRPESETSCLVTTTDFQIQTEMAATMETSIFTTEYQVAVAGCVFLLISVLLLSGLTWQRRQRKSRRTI
hIL-2Rαβγ on CTLL-2 cells (human), sequence (P14784 27-551, chain 2 of 3, further chain): as the sequence (P14784 27-551, chain 1 of 2) above
hIL-2Rαβγ on CTLL-2 cells (human), sequence (P31785 23-369, chain 3 of 3, further chain): as the sequence (P31785 23-369, chain 2 of 2, further chain) above

[7] = molecular target: hIL-2Rα (human) (UniProt P01589); assay: SPR, Biacore T200; hIL-2Rα on CM5 chip through His capture kit, binder as analyte
hIL-2Rα (human), sequence (P01589 22-213): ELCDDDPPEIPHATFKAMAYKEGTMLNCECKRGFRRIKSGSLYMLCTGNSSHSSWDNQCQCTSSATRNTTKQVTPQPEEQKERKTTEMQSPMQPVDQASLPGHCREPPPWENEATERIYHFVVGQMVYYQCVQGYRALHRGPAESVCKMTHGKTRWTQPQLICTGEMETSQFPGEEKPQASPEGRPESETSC

[8] = molecular target: hIL-2Rβ (human) (UniProt P14784); assay: SPR, Biacore T200; hIL-2Rβ as analyte; three-step format as the filing describes it
hIL-2Rβ (human), sequence (P14784 27-239): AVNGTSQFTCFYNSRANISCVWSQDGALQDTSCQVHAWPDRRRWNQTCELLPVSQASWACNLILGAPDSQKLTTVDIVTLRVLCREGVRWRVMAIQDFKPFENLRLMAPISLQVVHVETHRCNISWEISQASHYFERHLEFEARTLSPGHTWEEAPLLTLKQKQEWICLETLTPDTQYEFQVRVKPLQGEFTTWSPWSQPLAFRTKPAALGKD

[9] = molecular target: hIL-2Rβγ (human) (UniProt P14784); assay: SPR, Biacore T200; hIL-2Rβγ as analyte, single cycle kinetics; three-step format as the filing describes it
hIL-2Rβγ (human), sequence (P14784 27-239, chain 1 of 2): as the sequence (P14784 27-239) above
hIL-2Rβγ (human), sequence (P31785 23-254, chain 2 of 2, further chain): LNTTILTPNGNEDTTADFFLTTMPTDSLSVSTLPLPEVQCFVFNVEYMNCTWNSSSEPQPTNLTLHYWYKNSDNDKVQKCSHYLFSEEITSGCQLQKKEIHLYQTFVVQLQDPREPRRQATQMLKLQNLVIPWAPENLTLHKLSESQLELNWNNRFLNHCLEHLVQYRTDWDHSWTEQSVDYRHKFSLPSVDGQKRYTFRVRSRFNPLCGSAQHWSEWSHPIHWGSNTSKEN

hCD73 (human), sequence (P21589 27-549 limits assumed): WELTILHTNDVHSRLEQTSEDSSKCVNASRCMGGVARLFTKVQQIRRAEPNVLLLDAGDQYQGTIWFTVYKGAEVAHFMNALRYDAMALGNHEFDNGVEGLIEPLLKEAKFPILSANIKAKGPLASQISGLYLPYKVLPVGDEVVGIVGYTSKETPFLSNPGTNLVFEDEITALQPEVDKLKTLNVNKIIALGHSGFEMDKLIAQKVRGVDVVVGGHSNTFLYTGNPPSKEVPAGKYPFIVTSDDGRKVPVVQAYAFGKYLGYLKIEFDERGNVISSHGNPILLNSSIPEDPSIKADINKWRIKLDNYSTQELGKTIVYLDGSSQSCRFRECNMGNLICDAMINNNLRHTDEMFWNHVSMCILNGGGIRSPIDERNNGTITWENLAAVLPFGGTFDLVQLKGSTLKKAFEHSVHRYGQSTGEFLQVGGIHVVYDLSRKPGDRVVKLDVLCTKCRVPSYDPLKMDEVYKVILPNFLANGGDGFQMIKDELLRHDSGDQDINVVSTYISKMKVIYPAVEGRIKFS
membrane-bound human CD73 (human), sequence (P21589 27-549 limits assumed): as above

IC50, inhibition of soluble CD73 enzyme activity (AMP-Glo assay, recombinant human CD73) [1]	IC50, inhibition of membrane-bound CD73 enzyme activity on MDA-MB-231 cells (adenosine assay) [2]	pKd [3]	pKd [4]	EC50, SEAP reporter (JAK-STAT pathway activation) in HEK-BLUE IL-2 reporter cells [5]	EC50, CTLL-2 cell proliferation (WST-1 absorbance) [6]	pKd [7]	pKd [8]	pKd [9]	Substance
0.03 nM	1.47 nM	9.46	10.00						Oleclumab (Astrazeneca), produced on order from Ybiologics, Inc. (antibody)
				0.0103 nM	0.08 nM	7.30	5.68	11.00	Aldesleukin (trade name: PROLEUKIN, Novartis) (ligand)
